B1: unlabeled TAR RNA (HIV-1 vRNA 1-57) (structured_RNA)
RNA: GGUCUCUCUGGUUAGACCAGAUCUGAGCCUGGGAGCUCUCUGGCUAACUAGGGAACC
B2: Bio-TAR RNA (HIV-1 vRNA 1-57) (structured_RNA)
RNA: B1 RNA
modifications: biotin-dT (terminal; end ambiguous in printed table)

What was measured:
[1] = biological target: T1, GST-IN-CTD (HIV-1 integrase C-terminal domain) (HIV-1, UniProt P04585 1348-1435); assay: competition (AlphaScreen); low salt; competes with His6-SUMO-INI1(183-304) (0.094 uM) for GST-CTD (0.186 uM); Alpha proximity assay, low salt (100 mM NaCl; 500 mM in salt test); buffer, pH and temperature not in the material; conditions: protein: recombinant; tags: GST; hairpin
[2] = biological target: T1, GST-IN-CTD (HIV-1 integrase C-terminal …); assay: AlphaScreen; 100 mM NaCl; displaced by INI1(183-304), IC50 of INI1 about 5 nM (Fig. 4e); Alpha proximity assay, low salt (100 mM NaCl; 500 mM in salt test); buffer, pH and temperature not in the material; conditions: protein: recombinant; tags: GST; label: biotin; hairpin

Binder | IC50 [1] [nM] | binding result [2]
B1 | ~5 | –
B2 | – | binds

From PMC8115288, “INI1/SMARCB1 Rpt1 domain mimics TAR RNA in binding to integrase to facilitate HIV-1 replication”
